Reference: US20080300163A1

Legend:
[1] = biological target: T1, full length rat GHR (L43R) on BAF3 cells (clone 2E2-2B12-F4) (rat) (UniProt P16310); assay: cell-based or functional assay
T1 sequence (looked up): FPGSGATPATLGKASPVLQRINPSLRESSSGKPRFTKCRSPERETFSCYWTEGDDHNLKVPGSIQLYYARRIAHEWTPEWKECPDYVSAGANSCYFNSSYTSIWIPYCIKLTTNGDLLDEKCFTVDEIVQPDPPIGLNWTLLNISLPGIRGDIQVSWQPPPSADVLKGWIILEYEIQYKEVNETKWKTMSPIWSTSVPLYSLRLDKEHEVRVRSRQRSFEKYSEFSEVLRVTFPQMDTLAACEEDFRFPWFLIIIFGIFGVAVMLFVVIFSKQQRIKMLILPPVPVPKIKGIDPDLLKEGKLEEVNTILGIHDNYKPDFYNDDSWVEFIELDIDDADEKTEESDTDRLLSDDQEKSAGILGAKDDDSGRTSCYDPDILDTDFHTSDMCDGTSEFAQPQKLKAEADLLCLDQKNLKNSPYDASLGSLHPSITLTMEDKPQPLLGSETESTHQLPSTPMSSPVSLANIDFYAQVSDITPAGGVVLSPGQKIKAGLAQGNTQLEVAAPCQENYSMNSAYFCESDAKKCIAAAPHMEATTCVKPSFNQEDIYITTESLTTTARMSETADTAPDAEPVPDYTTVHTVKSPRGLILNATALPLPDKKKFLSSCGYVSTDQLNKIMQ

[2] = biological target: human growth hormone receptor on IM-9 cells (human) (UniProt P10912); assay: cell-based or functional assay
UniProt P10912, sequence (P10912 19-638): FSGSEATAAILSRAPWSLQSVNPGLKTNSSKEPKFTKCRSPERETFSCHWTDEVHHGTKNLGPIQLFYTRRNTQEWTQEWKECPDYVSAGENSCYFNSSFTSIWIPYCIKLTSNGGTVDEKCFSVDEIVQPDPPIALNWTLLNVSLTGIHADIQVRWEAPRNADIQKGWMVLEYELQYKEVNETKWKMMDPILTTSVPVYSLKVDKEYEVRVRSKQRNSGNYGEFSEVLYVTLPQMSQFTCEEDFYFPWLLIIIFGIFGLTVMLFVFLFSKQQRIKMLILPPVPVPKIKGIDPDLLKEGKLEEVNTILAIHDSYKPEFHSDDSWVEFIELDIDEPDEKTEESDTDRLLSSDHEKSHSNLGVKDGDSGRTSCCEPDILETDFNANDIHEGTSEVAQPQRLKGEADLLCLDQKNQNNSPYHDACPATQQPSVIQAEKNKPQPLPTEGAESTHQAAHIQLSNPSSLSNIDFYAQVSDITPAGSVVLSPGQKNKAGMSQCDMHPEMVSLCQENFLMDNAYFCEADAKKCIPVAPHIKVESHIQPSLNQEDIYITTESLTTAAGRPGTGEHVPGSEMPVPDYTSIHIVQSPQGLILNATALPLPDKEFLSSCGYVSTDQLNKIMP

G131pAF-30KPEG hGH (from UniProt P01241 27-217) (ligand)
Proliferation EC50 [1]: 4.6 nM
pSTAT5 EC50 (nM) [2]: 23.8 nM

K145pAF-30KPEG hGH (from UniProt P01241 27-217) (ligand)
Proliferation EC50 [1]: 5.3 nM
pSTAT5 EC50 (nM) [2]: 20.6 nM

R134pAF-20KPEG hGH (from UniProt P01241 27-217) (ligand)
pSTAT5 EC50 (nM) [2]: 5.3 nM

Y35pAF-40KPEG hGH (from UniProt P01241 27-217) (ligand)
Proliferation EC50 [1]: 24 nM
pSTAT5 EC50 (nM) [2]: 53.3 nM

Y143pAF-30KPEG hGH (from UniProt P01241 27-217) (ligand)
Proliferation EC50 [1]: 6.6 nM
pSTAT5 EC50 (nM) [2]: 12.3 nM
